This assay deals with T1, aIF2-γ subunit of translation initiation factor aIF2, recombinant, His-tagged (Sulfolobus solfataricus, UniProt Q980A5 1-415).
T1 construct: translation initiation factor 2 subunit gamma (aIF2-γ), Sulfolobus solfataricus
T1 sequence (looked up): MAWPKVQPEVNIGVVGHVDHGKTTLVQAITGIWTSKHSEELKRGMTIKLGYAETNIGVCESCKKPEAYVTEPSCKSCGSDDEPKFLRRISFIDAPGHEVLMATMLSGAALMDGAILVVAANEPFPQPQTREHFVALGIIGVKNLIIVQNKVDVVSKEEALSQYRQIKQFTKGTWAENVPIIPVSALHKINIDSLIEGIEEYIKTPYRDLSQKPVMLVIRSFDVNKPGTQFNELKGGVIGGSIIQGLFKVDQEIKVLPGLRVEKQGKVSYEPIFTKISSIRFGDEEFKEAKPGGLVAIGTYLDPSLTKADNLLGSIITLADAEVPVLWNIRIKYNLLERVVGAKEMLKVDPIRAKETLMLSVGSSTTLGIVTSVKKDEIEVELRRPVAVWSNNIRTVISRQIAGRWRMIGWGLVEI
Description: native gel or EMSA; acidic native polyacrylamide gel electrophoresis of the individual aIF2 subunits and the trimeric complex (Supplementary Figure S3, lanes 1-4). The conditions noted are these: both partners purified. (Mobility shift assays separate free from complexed probe on a gel.)

B1: aIF2-β subunit of translation initiation factor aIF2, recombinant, His-tagged (natural protein, Sulfolobus solfataricus, UniProt Q97W59 1-139, looked up)
chain: MSSEKEYVEMLDRLYSKLPEKGRKEGTQSLPNMIILNIGNTTIIRNFAEYCDRIRREDKICMKYLLKELAAPGNVDDKGELVIQGKFSSQVINTLMERFLKAYVECSTCKSLDTILKKEKKSWYIVCLACGAQTPVKPL
notes: translation initiation factor 2 subunit beta (aIF2-β), Sulfolobus solfataricus; also called aIF2-ß
With B1, the binding result was “binds”.

B2: aIF2-α subunit of translation initiation factor aIF2, recombinant, His-tagged (natural protein, Sulfolobus solfataricus, UniProt Q97Z79 1-266, looked up)
chain: MIYSRSKLPSEGEILIATVKQVFDYGSYVSLDEYGGLQAFLPWSEVSSKWVKNIRDVLKENRKVIVKVIRVDRRKGTVDVSLKKVTDDERRKKNLQWKKIQRLDKILELVSQKLKLSEKDAWEQVAWKLEAKYGDPITAIEKAVKEGEKILIDAGVPEIWVKPLLEEASKHAEERKVKMSGLITVRTNEPLGVEKIKEVISKALENIEQDYESLLNIKIYTIGAPRYRVDVVGTNPKEASEALNQIISNLIKIGKEENVDISVVKK
notes: translation initiation factor 2 subunit alpha (aIF2-α), Sulfolobus solfataricus
Turning to B2, the binding result is reported as “binds”.

Values taken from publication PMC3936769, “Back to translation: removal of aIF2 from the 5′-end of mRNAs by translation recovery factor in the crenarchaeon Sulfolobus solfataricus” (Nucleic Acids Research, 2013).
